# Test results as given in paper PMC2603141 (Virology, 2008).
# B1: PIV 5 hemagglutinin-neuraminidase (HN) ectodomain beginning at residue 56, HN(ecto56) (domain or fragment)
# chain: SPSSGLGSITDLLNNILSVANQIIYNSAVALPLQLDTLESTLLTAIKSLQTSDKLEQNCSWSAALINDNRYINGINQFYFSIAEGRNLTLGPLLNMPSFIPTATTPEGCTRIPSFSLTKTHWCYTHNVILNGCQDHVSSNQFVSMGIIEPTSAGFPFFRTLKTLYLSDGVNRKSCSISTVPGGCMMYCFVSTQPERDDYFSAAPPEQRIIIMYYNDTIVERIINPPGVLDVWATLNPGTGSGVYYLGWVLFPIYGGVIKGTSLWNNQANKYFIPQMVAALCSQNQATQVQNAKSSYYSSWFGNRMIQSGILACPLRQDLTNECLVLPFSNDQVLMGAEGRLYMYGDSVYYYQRSNSWWPMTMLYKVTITFTNGQPSAISAQNVPTQQVPRPGTGDCSATNRCPGFCLTGVYADAWLLTNPSSTSTFGSEATFTGSYLNTATQRINPTMYIANNTQIISSQQFGSSGQEAAYGHTTCFRDTGSVMVYCIYIIELSSSLLGQFQIVPFIRQVTLS
# modifications: carbohydrate at 4 N-linked glycosylation sites; inter-chain disulfide bond (covalent dimers)
# How the values were obtained:
# [1] = biological target: the molecule itself; assay: reducing and non-reducing SDS-PAGE
# [2] = biological target: the molecule itself; assay: negative-stain electron microscopy
protein,measurement,setting,value
B1,stoichiometry N,[1],2
same,stoichiometry N,[2],4
